The values that follow come from US5792629A, “Isolated DNA encoding novel protease inhibitory polypeptide” (Mochida Pharmaceutical Co., Ltd., priority 1990, dated 1998).

Where a chain is given by its changes, count along the chain named. Names may count otherwise.

The target in assay [1] is plasmin (Homo sapiens, UniProt P00747). Particulars: literature report; cited from earlier work.
Assay [2] deals with kallikrein. Particulars: literature report; cited from earlier work.
In assay [3] the test system is trypsin. The settings on record: literature report; cited from earlier work.
The target of assay [4] is FXa (Homo sapiens, UniProt P00742). Kind of assay: Human FXa-inhibiting activity, substrate S-2222. Particulars: purified products, FIG. 25 and FIG. 26. It is filed as biochemical. More on the design: purchased American Diagnostica Inc. The procedure: The purified sample obtained in Example 1-(5) was dissolved in 100 μl of distilled water. Concentration of this solution was determined based on its bovine trypsin-inhibiting activity using the aforementioned UTI as a standard. The solution was then diluted to various concentration levels with 0.1% BSA/150 mM NaCl/5 mM CaCl2 /50 mM Tris-HCl buffer (pH 8.3) for use in the activity measurement. The UTI was also diluted in the same manner. Using a synthetic compound S-2222 (Daiichi Pure Chemicals Co., Ltd.) as a substrate, human FXa-inhibiting activities of the diluted test samples and the positive control were measured in accordance with the method of Ohno et al. (Ohno,H. et al., Thromb. Res., vol.19, pp.579-588, 1980) as follows.
Sequence of FXa (P00742 235-488 limits assumed): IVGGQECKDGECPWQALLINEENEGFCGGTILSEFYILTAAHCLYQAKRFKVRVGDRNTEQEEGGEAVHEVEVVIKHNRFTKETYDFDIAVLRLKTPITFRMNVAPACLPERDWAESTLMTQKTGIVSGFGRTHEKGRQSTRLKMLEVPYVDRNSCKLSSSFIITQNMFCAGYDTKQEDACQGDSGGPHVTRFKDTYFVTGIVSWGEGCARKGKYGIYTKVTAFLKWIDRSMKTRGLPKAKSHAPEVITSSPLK
Sequence of FXa (P00742 41-179 partner limits assumed): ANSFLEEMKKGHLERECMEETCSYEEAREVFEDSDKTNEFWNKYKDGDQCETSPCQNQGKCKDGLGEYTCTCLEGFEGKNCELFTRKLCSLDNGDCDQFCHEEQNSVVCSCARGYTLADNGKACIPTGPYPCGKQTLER
Human FXa (American Diagnostica Inc.) was dissolved in distilled water to a concentration of 10 PEU/ml and the solution was further diluted with 0.1% BSA/150 mM NaCl/5 mM CaCl2 /50 mM Tris-HCl buffer (pH 8.3) to prepare 0.1 PEU/ml of FXa solution. 4 mM solution of S-2222 was prepared by dissolving it in distilled water and the solution was further diluted with 0.1% BSA/150 mM NaCl/5 MM CaCl2 /50 mM Tris-HCl buffer (pH 8.3) to obtain 2 mM solution of S-2222.
Next, 25 μl of the test sample or positive control was mixed with 100 μl of 0.1% BSA/150 mM NaCl/5 mM CaCl2 /50 mM Tris-HCl buffer (pH 8.3) and 25 μl of the FXa solution. After incubation at 37° C. for 10 minutes, 100 μl of the S-2222 solution was added to the mixture to start the reaction. The reaction was carried out at 37° C. for 30 minutes and then stopped by adding 50 μl of 50% acetic acid solution to the reaction mixture. Thereafter, absorbance at 405 nm was measured using a spectrophotometer.
In this instance, in order to eliminate absorbance of various solutions in the reaction mixture, a blank solution was prepared by mixing 25 μl of the FXa solution with 50 μl of 50% acetic acid and then with 25 μl of each test sample or the positive control, 100 μl of 0.1% BSA/150 mM NaCl/5 mM CaCl2 /50 mM Tris-HCl buffer (pH 8.3) and with 100 μl of the S-2222 solution.
In this figure, human FXa remaining activity was expressed by percentage based on the absorbance of a control reaction mixture in which 25 μl of 0.1% BSA/150 mM NaCl/5 mM CaCl2 /50 mM Tris-HCl buffer (pH 8.3) was used instead of the test sample or the positive control.

Assay [5] has as its target T1, Human trypsin (Homo sapiens, UniProt P07477).
T1 construct: purchased Calbiochem
The assay can be described thus: Human trypsin-inhibiting activity, substrate S-2444. Particulars: purified products, concentration as U/ml bovine trypsin-inhibiting activity based on UTI. Type of assay: biochemical. On the procedure: The purified sample obtained in Example 1-(5) was dissolved in 100 μl of distilled water. Concentration of this solution was determined based on its bovine trypsin-inhibiting activity using the aforementioned UTI as a standard. The solution was then diluted to various concentration levels with 0.1% BSA/0.2M triethanolamine-HCl buffer (pH 7.8) for the activity measurement. The aforementioned UTI was also diluted in the same manner.
Using the aforementioned synthetic compound S-2444 as a substrate, human trypsin-inhibiting activities of the diluted test samples and the positive control were measured in accordance with the method of Kassell (Kassell B., Methods in Enzymol., vol 19, pp.84-852, 1970) as follows.
Human trypsin (Calbiochem) was dissolved in 0.001M HCl to a concentration of 1,000 SU/ml and the solution was further diluted with 0.1% BSA/0.2M triethanolamine-HCl buffer (pH 7.8) to prepare 1.25 SU/ml of trypsin solution. 2 mM solution of S-2444 was prepared by dissolving it in distilled water.
Next, 100 μl of the test sample or positive control was mixed with 100 μl of the trypsin solution. After incubation at 37° C. for 10 minutes, 50 μl of the S-2444 solution was added to the mixture to start the reaction. The reaction was carried out at 37° C. for 20 minutes and then stopped by adding 50 μl of 50% acetic acid solution to the reaction mixture. Thereafter, absorbance at 405 nm was measured using a spectrophotometer.
In this instance, in order to eliminate absorbance of various solutions in the reaction mixture, a blank solution was prepared by mixing 100 μl of the trypsin solution with 50 μl of 50% acetic acid and then with 100 μl of each test sample or the positive control and with 50 μl of the S-2444 solution.
In this figure, human trypsin remaining activity was expressed by percentage based on the absorbance of a control reaction mixture in which 100 μl of 0.1% BSA/0.2M triethanolamine-HCl buffer (pH 7.8) was used instead of the test sample or the positive control.

Sequence of plasmin (P00747 581-810 limits assumed, species assumed): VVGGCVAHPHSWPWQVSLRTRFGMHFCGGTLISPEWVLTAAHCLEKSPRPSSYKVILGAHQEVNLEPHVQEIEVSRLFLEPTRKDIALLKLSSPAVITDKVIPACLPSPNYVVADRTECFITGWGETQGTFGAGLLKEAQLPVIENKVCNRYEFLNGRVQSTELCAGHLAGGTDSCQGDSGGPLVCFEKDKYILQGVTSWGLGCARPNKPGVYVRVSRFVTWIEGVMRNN
Sequence of plasmin (P00747 97-580 partner limits assumed, species assumed): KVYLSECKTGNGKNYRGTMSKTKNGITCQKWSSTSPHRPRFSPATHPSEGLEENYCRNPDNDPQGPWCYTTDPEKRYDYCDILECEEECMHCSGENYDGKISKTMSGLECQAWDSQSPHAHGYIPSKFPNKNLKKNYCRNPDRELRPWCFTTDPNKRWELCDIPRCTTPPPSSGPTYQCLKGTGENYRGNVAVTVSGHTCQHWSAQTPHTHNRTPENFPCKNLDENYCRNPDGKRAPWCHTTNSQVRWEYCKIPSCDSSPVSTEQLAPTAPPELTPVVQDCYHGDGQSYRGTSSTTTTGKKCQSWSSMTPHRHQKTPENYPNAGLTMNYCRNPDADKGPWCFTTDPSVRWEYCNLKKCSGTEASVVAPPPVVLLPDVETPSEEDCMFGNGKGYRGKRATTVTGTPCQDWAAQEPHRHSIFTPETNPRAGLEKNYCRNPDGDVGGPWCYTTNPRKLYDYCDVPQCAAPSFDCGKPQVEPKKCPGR

Turning to aprotinin [reference compound], the inhibition of plasmin entry in assay [1] is given as “inhibits”. Moreover, the inhibition of kallikrein result in assay [2] is “inhibits”. Moreover, the inhibition of trypsin result in assay [3] was “inhibits”.

B1: Y46E: polypeptide defined by the amino acid sequence of formula 5, purified from culture supernatant of E. coli JE5505 (pM575B) (protein)
chain: TVAACNLPIVRGPCRAFIQLWAFDAVKGKCVLFPYGGCQGNGNKFESEKECREYCGVPGDGDEELLRFSN
In the case of B1, the “human FXa-inhibiting activity relative to polypeptide TN70” value in assay [4] is given as “about 7 times”. Further, the “human trypsin-inhibiting activity compared with polypeptides TN70 and TL66” value in assay [5] is listed as “almost the same”.

B2: Q19K: polypeptide defined by the amino acid sequence of formula 6, purified from culture supernatant of E. coli JE5505 (pM576) (protein)
chain: B1 chain with T1D, V2D, Q19K, E46Y
For the molecule B2, the “human FXa-inhibiting activity relative to polypeptide TN70” value in assay [4] is on record as “about 5 times”. For the same molecule, the “human trypsin-inhibiting activity compared with polypeptides TN70 and TL66” value in assay [5] is on record as “almost the same”.
